Experimental data as given in patent US20240252614A1 (Pfizer, published 2024).

Key:
PIV1027 = biological target: T1, PIV1027 (PIV1); assay: BLI, 50C stress;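 note: binding of thermally stressed PIV1 F mutant supernatant to mAb on AHC biosensors for 5 min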
T1 construct: S473L
Procedure: (§1) All measurements were conducted at 30° C. temperature in 96-well black plates (Corning, Corning, NY) with a final volume of 240 μL per well at a constant agitation rate of 1000 RPM.
(§2) Conformation integrity of PIV1 F protein mutants were evaluated by a thermal stress experiment. Crude cell culture supernatants were normalized based on the results of the titer quantitation and then incubated for 1 hour at room temperature and two higher temperatures. For the initial testing of PIV1 mutants, the two temperatures were 50° C. and 53° C. […] Anti-Human IgG Fc Capture (AHC) biosensors were first equilibrated in PB for before being dipped into more PB to establish the initial baseline. […] The mAb-bound biosensors were then dipped into the thermal stresses cell culture supernatants for 5 minutes.

PIV1023 = biological target: T2, PIV1023 (PIV1); assay: BLI, 50C stress;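 note: binding of thermally stressed PIV1 F mutant supernatant to mAb on AHC biosensors for 5 min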
T2 construct: A466L
Procedure: as §1, §2

PIV1014 = biological target: T3, PIV1014 (PIV1); assay: BLI, 50C stress;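 note: binding of thermally stressed PIV1 F mutant supernatant to mAb on AHC biosensors for 5 min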
T3 construct: Q92C-G134C
Procedure: as §1, §2

PIV1049 = biological target: T4, PIV1049 (PIV1); assay: BLI, 56C stress;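 note: binding of thermally stressed PIV1 F mutant supernatant to mAb on AHC biosensors for 5 min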
T4 construct: Q92C-G134C, A466L, S473L
Procedure: (§3) The OCTET HTX (Sartorius, Gottingen, Germany) instrument was used to evaluate the expression and conformational integrity for each mutant. All measurements were conducted at 30° C. temperature in 96-well black plates (Corning, Corning, NY) with a final volume of 240 μL per well at a constant agitation rate of 1000 RPM.
as §2

PIV1062 = biological target: T5, PIV1062 (PIV1); assay: BLI, 56C stress
T5 construct: F113G, F114S, A466L, S473L, A480L, Q92A, G134L
Procedure: as §3, §2

PIV1060 = biological target: T6, PIV1060 (PIV1); assay: BLI, 56C stress
T6 construct: Q92L, G134A, A466L, S473L, A480L
Procedure: as §3, §2

PIV1065 = biological target: T7, PIV1065 (PIV1); assay: BLI, 56C stress
T7 construct: F113G, F114S, Q92C-G134C, A466I, S473I
Procedure: as §3, §2

PIV1055 = biological target: T8, PIV1055 (PIV1); assay: BLI, 56C stress
T8 construct: A466L, S473L, G134A
Procedure: as §3, §2

hMPV075 = biological target: T9, hMPV075 (hMPV A, UniProt Q6WB98 19-102); assay: BLI, 50C stress, vs WT Control
T9 construct: L473F
Procedure: as §3
(§4) Conformation integrity of hMPV A F protein mutants were evaluated by thermal stress experiments. Crude cell culture supernatants were normalized based on the results of the titer quantitation and then incubated for 1 hour at room temperature and two higher temperatures. […] Anti-Human IgG Fc Capture (AHC) biosensors were first equilibrated in PB before being dipped into more PB to establish the initial baseline. […] The mAb-bound biosensors were then dipped into the thermal stressed cell culture supernatants for 5 minutes. The kinetics analysis was done by OCTET data analysis software (version 12.0, Sartorius) based on curve fitting of the entire associate step.

hMPV061 = biological target: T10, hMPV061 (hMPV A, UniProt Q6WB98 19-102); assay: BLI, 50C stress, vs WT Control
T10 construct: G106A
Procedure: as §3, §4

hMPV071 = biological target: T11, hMPV071 (hMPV A, UniProt Q6WB98 19-102); assay: BLI, 50C stress, vs WT Control
T11 construct: T365I
Procedure: as §3, §4

hMPV060 = biological target: T12, hMPV060 (hMPV A, UniProt Q6WB98 19-102); assay: BLI, 50C stress, vs WT Control
T12 construct: A459P
Procedure: as §3, §4

hMPV048 = biological target: T13, hMPV048 (hMPV A, UniProt Q6WB98 19-102); assay: BLI, 50C stress, vs WT Control
T13 construct: L141C-A161C
Procedure: as §3, §4

hMPV045 = biological target: T14, hMPV045 (hMPV A, UniProt Q6WB98 19-102); assay: BLI, 50C stress, vs WT Control
T14 construct: I137C-A159C
Procedure: as §3, §4

hMPV055 = biological target: T15, hMPV055 (hMPV A, UniProt Q6WB98 19-102); assay: BLI, 50C stress, vs WT Control
T15 construct: N145P
Procedure: as §3, §4

hMPV068 = biological target: T16, hMPV068 (hMPV A, UniProt Q6WB98 19-102); assay: BLI, 50C stress, vs WT Control
T16 construct: A159V
Procedure: as §3, §4

hMPV066 = biological target: T17, hMPV066 (hMPV A, UniProt Q6WB98 19-102); assay: BLI, 50C stress, vs WT Control
T17 construct: T49I
Procedure: as §3, §4

hMPV044 = biological target: T18, hMPV044 (hMPV A, UniProt Q6WB98 19-102); assay: BLI, 50C stress, vs WT Control
T18 construct: T411C-Q434C
Procedure: as §3, §4

hMPV063 = biological target: T19, hMPV063 (hMPV A, UniProt Q6WB98 19-102); assay: BLI, 50C stress, vs WT Control
T19 construct: G239A
Procedure: as §3, §4

hMPV058 = biological target: T20, hMPV058 (hMPV A, UniProt Q6WB98 19-102); assay: BLI, 50C stress, vs WT Control
T20 construct: L187P
Procedure: as §3, §4

hMPV052 = biological target: T21, hMPV052 (hMPV A, UniProt Q6WB98 19-102); assay: BLI, 50C stress, vs WT Control
T21 construct: L66P
Procedure: as §3, §4

hMPV059 = biological target: T22, hMPV059 (hMPV A, UniProt Q6WB98 19-102); assay: BLI, 50C stress, vs WT Control
T22 construct: V449P
Procedure: as §3, §4

hMPV A F WT Control = hMPV A F WT Control (hMPV A, UniProt Q6WB98 19-102); assay: BLI, 50C stress, vs WT Control
Procedure: as §3, §4

hMPV046 = biological target: T23, hMPV046 (hMPV A, UniProt Q6WB98 19-102); assay: BLI, 50C stress, vs WT Control
T23 construct: A140C-S149C
Procedure: as §3, §4

hMPV062 = biological target: T24, hMPV062 (hMPV A, UniProt Q6WB98 19-102); assay: BLI, 50C stress, vs WT Control
T24 construct: G121A
Procedure: as §3, §4

hMPV054 = biological target: T25, hMPV054 (hMPV A, UniProt Q6WB98 19-102); assay: BLI, 50C stress, vs WT Control
T25 construct: S132P
Procedure: as §3, §4

hMPV053 = biological target: T26, hMPV053 (hMPV A, UniProt Q6WB98 19-102); assay: BLI, 50C stress, vs WT Control
T26 construct: L110P
Procedure: as §3, §4

hMPV049 = biological target: T27, hMPV049 (hMPV A, UniProt Q6WB98 19-102); assay: BLI, 50C stress, vs WT Control
T27 construct: E146C-T160C
Procedure: as §3, §4

hMPV069 = biological target: T28, hMPV069 (hMPV A, UniProt Q6WB98 19-102); assay: BLI, 50C stress, vs WT Control
T28 construct: S291I
Procedure: as §3, §4

hMPV050 = biological target: T29, hMPV050 (hMPV A, UniProt Q6WB98 19-102); assay: BLI, 50C stress, vs WT Control
T29 construct: V148C-L158C
Procedure: as §3, §4

hMPV043 = biological target: T30, hMPV043 (hMPV A, UniProt Q6WB98 19-102); assay: BLI, 50C stress, vs WT Control
T30 construct: G366C-D454C
Procedure: as §3, §4

hMPV067 = biological target: T31, hMPV067 (hMPV A, UniProt Q6WB98 19-102); assay: BLI, 50C stress, vs WT Control
T31 construct: S149T
Procedure: as §3, §4

hMPV047 = biological target: T32, hMPV047 (hMPV A, UniProt Q6WB98 19-102); assay: BLI, 50C stress, vs WT Control
T32 construct: L141C-A159C
Procedure: as §3, §4

hMPV077 = biological target: T33, hMPV077 (hMPV A, UniProt Q6WB98 19-102); assay: BLI, 50C stress, vs WT Control
T33 construct: Q476C, S477C
Procedure: as §3, §4

B1: PIV1-8 mAb (antibody, V domains shown)
VH: QVQLVQSGAEVKKPGSSVKVSCEASGGTFSNYVISWVRQAPGQGLEWMGGIIPVFATAKYAQKFQGRVTIIADQSTNTAYLELSSLRSDDTAVYFCASVDSGGTWWDAFAIWGQGTMVTVSS
VL: QAVVTQPRSVSGSPGQAVTISCTGTSSDVGGYNYVSWYQHHPGKAPKLIIYDVTKRPSGVPDRFSGSKSGNTASLTISGLQTEYEADYYCCSYAGSYTLVFGGGTKLTVLG
notes: human IgG1; also called hPIV1-8 mAb; hPIV1-8
Question: For B1, which “Response Shift” value (PIV1027) is on record?
Answer: -0.022 nm

Question: What about the “Response Shift” value (PIV1023) of the same binder?
Answer: 0.018 nm

Question: What about the “Response Shift” value (PIV1014) of the same binder?
Answer: 0.011 nm

Question: What about the “Response Shift” value (PIV1049) of the same binder?
Answer: 0.294 nm

Question: And the “Response Shift” value (PIV1062)?
Answer: 0.623 nm

Question: And the “Response Shift” value (PIV1060)?
Answer: 0.597 nm

Question: What about the “Response Shift” value (PIV1065) of the same binder?
Answer: 0.677 nm

Question: And the “Response Shift” value (PIV1055)?
Answer: 0.682 nm

B2: hMPV-2 mAb (antibody, V domains shown)
VH: QVQLQQSGAEVKKPGASVKVSCKASGYTFTSYGISWVRQAPGQGLEWMGWISGYNGNTNYAQTFQGTFTMTTDTSTSTAYMELRRLRSGDTAVYYCARDRYYASGSYNGMDVWGQGTTVTVSS
VL: QSALTQPPSASGAPGQRVTVSCSGSSSNVGSSSVYWYQQLPGTAPKLLIYRNNQRPSGVPDRFSGSKSGTSASLAISGLRSEDEADYYCAAWDDSLSGWVFGGGTKLTVLG
notes: human IgG1
Question: For B2, which “Fold change vs WT” value (hMPV075) is on record?
Answer: 2.3 fold

Question: And the “Fold change vs WT” value (hMPV061)?
Answer: 2 fold

Question: And the “Fold change vs WT” value (hMPV071)?
Answer: 2.4 fold

Question: And the “Fold change vs WT” value (hMPV060)?
Answer: 2.5 fold

Question: And the “Fold change vs WT” value (hMPV048)?
Answer: 1.5 fold

Question: And the “Fold change vs WT” value (hMPV045)?
Answer: 0.4 fold

Question: What about the “Fold change vs WT” value (hMPV055) of the same binder?
Answer: 0.7 fold

Question: What about the “Fold change vs WT” value (hMPV068) of the same binder?
Answer: 1.6 fold

Question: And the “Fold change vs WT” value (hMPV066)?
Answer: 2.6 fold

Question: What about the “Fold change vs WT” value (hMPV044) of the same binder?
Answer: 2.6 fold

Question: What about the “Fold change vs WT” value (hMPV063) of the same binder?
Answer: 2.4 fold

Question: And the “Fold change vs WT” value (hMPV058)?
Answer: 1.7 fold

Question: What about the “Fold change vs WT” value (hMPV052) of the same binder?
Answer: 2.2 fold

Question: What about the “Fold change vs WT” value (hMPV059) of the same binder?
Answer: 1.6 fold

Question: What about the “Fold change vs WT” value (hMPV A F WT Control) of the same binder?
Answer: 1 fold

Question: And the “Fold change vs WT” value (hMPV046)?
Answer: 1.7 fold

Question: And the “Fold change vs WT” value (hMPV062)?
Answer: 1.6 fold

Question: And the “Fold change vs WT” value (hMPV054)?
Answer: 1.6 fold

Question: And the “Fold change vs WT” value (hMPV053)?
Answer: 2 fold

Question: What about the “Fold change vs WT” value (hMPV049) of the same binder?
Answer: 1.9 fold

Question: And the “Fold change vs WT” value (hMPV069)?
Answer: 1.6 fold

Question: What about the “Fold change vs WT” value (hMPV050) of the same binder?
Answer: 0.5 fold

Question: What about the “Fold change vs WT” value (hMPV043) of the same binder?
Answer: 2 fold

Question: And the “Fold change vs WT” value (hMPV067)?
Answer: 2.3 fold

Question: And the “Fold change vs WT” value (hMPV047)?
Answer: -0.1 fold

Question: And the “Fold change vs WT” value (hMPV077)?
Answer: 2.2 fold
